B1: 6×His-FAK KFL_(776–841) (domain or fragment, human, UniProt Q05397 776-841, looked up)
chain: {6×His}-HRPQEIAMWQPNVEDSTVLDLRGIGQVLPTHLMEERLIRQQQEMEEDQRWLEKEERFLKPDVRLSR
modifications: also: fluorescent label on His-tag
notes: source: E. coli, purified (nickel column, Superdex 75 SEC); not shown: His6, N-terminal, kept

How the values were obtained:
[1] = biological target: 6×His–PYK2 KFL_(728–839) (human) (UniProt Q14289); test: ITC; 25 °C; 20 mM HEPES pH 7.5, 150 mM NaCl, 2 mM DTT, 5 mM Ca2+; CaM (300 µM) injected into KFL constructs in the cell (30 or 50 µM), or FERM domains (500 µM) injected into CaM (50 µM)
[2] = biological target: 6×His–PYK2 KFL_(728–839) (human) (UniProt Q14289); test: ITC; 25 °C; 20 mM HEPES pH 7.5, 150 mM NaCl, 2 mM DTT, 1 mM EGTA; CaM (300 µM) injected into PYK2 KFL728–839 (30 µM)
[3] = biological target: the molecule itself; test: SEC-MALS; Superdex 200; 20 mM HEPES, 200 mM NaCl, 2 mM DTT, pH 6.5 and 7.5; DAWN MALS detector
[4] = biological target: the molecule itself; test: MST; labelled 6×His protein at 50 nM, unlabelled protein serially diluted; 20 mM HEPES, 200 mM NaCl, 1 mM DTT, pH 6.5; dimer to monomers
6×His-FAK KFL_(776–841) [5] = biological target: T1, 6×His-FAK KFL_(776–841) (human, UniProt Q05397 776-841, fluorescent label from the NanoTemper His-tag labelling kit (MST, fluorescence anisotropy)); test: FP
T1 chain: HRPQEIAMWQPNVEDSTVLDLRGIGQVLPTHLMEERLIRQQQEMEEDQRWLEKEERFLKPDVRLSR

6×His-FAK KFL_(776–841) [6] = biological target: B1; test: fluorescence polarisation; fluorescence anisotropy; labelled 6×His protein at 50 nM, unlabelled MBP-fused protein serially diluted; 20 mM HEPES, 200 mM NaCl, 1 mM DTT, pH 6.5; conditions: both partners purified
FAK KFL 776-841 = biological target: T2, FAK KFL 776-841 (Homo sapiens, UniProt Q05397); test: MST (self-association)
T2 chain: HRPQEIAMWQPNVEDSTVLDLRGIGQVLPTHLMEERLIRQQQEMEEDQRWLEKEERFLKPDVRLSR

## 6×His–CaM (recombinant calmodulin) (from UniProt P0DP23 1-149) (natural protein)
[1]
  stoichiometry N: 1
[2]
  stoichiometry N: 1

## B1
[3]
  stoichiometry N: 2
[4]
  Kd: ~800 nM

B2: MBP–FAK KFL_(776–841) (domain or fragment, human, UniProt Q05397 776-841, looked up)
chain: HRPQEIAMWQPNVEDSTVLDLRGIGQVLPTHLMEERLIRQQQEMEEDQRWLEKEERFLKPDVRLSR
notes: not shown: MBP, N-terminal, kept
6×His-FAK KFL_(776–841) [5]
  Kd: 730 nM
6×His-FAK KFL_(776–841) [6]
  binding result: binds

B3: FAK KFL 776-841 (protein)
chain: HRPQEIAMWQPNVEDSTVLDLRGIGQVLPTHLMEERLIRQQQEMEEDQRWLEKEERFLKPDVRLSR
modifications: not fully specified
FAK KFL 776-841
  Kd: 848 nM

Reference: article PMC9363500 (Communications Biology, 2022)
